Results as given in publication PMC9424959, “Single mutations toggle the substrate selectivity of multifunctional Camptotheca secologanic acid synthases” (The Journal of Biological Chemistry, 2022).
Positions count from the first letter of the chain named. Names and notes keep the numbering of the source. Each block holds one molecule with its values, some of them ahead of it.

Key:
[1] = target: T1, CYP72A565 (Camptotheca acuminata, UniProt A0A4Y5UJ61); assay: LC-MS of secologanic acid formed, reconstituted with CPR1; assay type: biochemical; conditions: 250 uM substrate, 500 uM NADPH, Camptotheca CPR1, DLPC, 100 mM NaPO4 pH 7.5, 30 °C, 120 min
T1 construct: full-length ORF, C-terminal His6, in pCWori, expressed in E. coli, purified; kinetics with Camptotheca CPR1 and DLPC

[2] = target: T2, CYP72A564 (Camptotheca acuminata, UniProt A0A7G8Z808); assay: as above; assay type: biochemical; conditions: 250 uM substrate, 500 uM NADPH, Camptotheca CPR1, DLPC, 100 mM NaPO4 pH 7.5, 30 °C, 120 min
T2 construct: full-length ORF, C-terminal His6, in pCWori, expressed in E. coli, purified; kinetics with Camptotheca CPR1 and DLPC

[3] = target: T3, CYP72A564 (Camptotheca acuminata, UniProt A0A7G8Z808, H131F); assay: Type I difference spectral titration; assay type: binding; conditions: read-out: Ks/mM
T3 construct: full-length ORF, C-terminal His6, in pCWori, expressed in E. coli, purified; kinetics with Camptotheca CPR1 and DLPC
From the text: (§1) Type I difference spectral titration on CYP72A564

[4] = target: T4, CYP72A564 (Camptotheca acuminata, UniProt A0A7G8Z808, H132D); assay: Type I difference spectral titration; assay type: binding; conditions: read-out: Ks/mM
T4 construct: full-length ORF, C-terminal His6, in pCWori, expressed in E. coli, purified; kinetics with Camptotheca CPR1 and DLPC
From the text: as §1

[5] = target: T5, CYP72A565 (Camptotheca acuminata, UniProt A0A4Y5UJ61, H131F); assay: Type I difference spectral titration; assay type: binding; conditions: read-out: Ks/mM
T5 construct: full-length ORF, C-terminal His6, in pCWori, expressed in E. coli, purified; kinetics with Camptotheca CPR1 and DLPC
From the text: (§2) Type I difference spectral titration on CYP72A565

[6] = target: T6, CYP72A565 (Camptotheca acuminata, UniProt A0A4Y5UJ61, H131F/H132D); assay: Type I difference spectral titration; assay type: binding; conditions: read-out: Ks/mM
T6 construct: full-length ORF, C-terminal His6, in pCWori, expressed in E. coli, purified; kinetics with Camptotheca CPR1 and DLPC
From the text: as §2

[7] = target: T7, CYP72A565 (Camptotheca acuminata, UniProt A0A4Y5UJ61, K270T); assay: Type I difference spectral titration; assay type: binding; conditions: read-out: Ks/mM
T7 construct: full-length ORF, C-terminal His6, in pCWori, expressed in E. coli, purified; kinetics with Camptotheca CPR1 and DLPC
From the text: as §2

[8] = target: T1, CYP72A565; assay: LC-MS of secologanin formed, reconstituted with CPR1; assay type: biochemical; conditions: 250 uM substrate, 500 uM NADPH, Camptotheca CPR1, DLPC, 100 mM NaPO4 pH 7.5, 30 °C, 120 min
[9] = target: T2, CYP72A564; assay: as above; assay type: biochemical; conditions: 250 uM substrate, 500 uM NADPH, Camptotheca CPR1, DLPC, 100 mM NaPO4 pH 7.5, 30 °C, 120 min
[10] = target: SLS, SLAS common ancestor (node 34) (synthetic construct); assay: Type I difference spectral titration; assay type: binding; conditions: read-out: Ks/mM
From the text: Type I difference spectral titration on SLS, SLAS common ancestor (node 34)

[11] = substrate: COC(=O)C1=CO[C@@H](O[C@@H]2O[C@H](CO)[C@@H](O)[C@H](O)[C@H]2O)[C@@H]2[C@@H](C)[C@@H](O)C[C@H]12; assay: purified protein; assay type: biochemical, Camptotheca acuminata; conditions: ~0.8 mM NADPH, Camptotheca CPR1, 60 uM DLPC, 100 mM NaPO4 pH 7.5, 30 °C
[12] = substrate: C[C@@H]1[C@H]2[C@H](O[C@@H]3O[C@H](CO)[C@@H](O)[C@H](O)[C@H]3O)OC=C(C(=O)O)[C@H]2C[C@@H]1O; assay: purified protein; assay type: biochemical, Camptotheca acuminata; conditions: ~0.8 mM NADPH, Camptotheca CPR1, 60 uM DLPC, 100 mM NaPO4 pH 7.5, 30 °C

T2 sequence (A0A7G8Z808 entry or part of it): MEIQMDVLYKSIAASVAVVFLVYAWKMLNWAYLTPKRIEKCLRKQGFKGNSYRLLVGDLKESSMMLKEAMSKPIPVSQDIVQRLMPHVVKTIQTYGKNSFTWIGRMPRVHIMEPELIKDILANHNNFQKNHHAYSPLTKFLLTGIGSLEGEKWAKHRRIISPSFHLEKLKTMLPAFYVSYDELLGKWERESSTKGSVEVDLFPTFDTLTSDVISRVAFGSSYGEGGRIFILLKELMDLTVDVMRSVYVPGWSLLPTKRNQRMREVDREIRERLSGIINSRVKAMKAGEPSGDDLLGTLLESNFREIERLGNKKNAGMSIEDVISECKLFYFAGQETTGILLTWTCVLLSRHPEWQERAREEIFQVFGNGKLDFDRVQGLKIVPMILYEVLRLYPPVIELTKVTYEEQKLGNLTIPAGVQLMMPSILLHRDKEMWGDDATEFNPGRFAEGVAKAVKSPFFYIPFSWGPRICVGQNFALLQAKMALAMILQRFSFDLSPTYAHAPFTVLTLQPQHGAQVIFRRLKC
T1 sequence (A0A4Y5UJ61 entry or part of it): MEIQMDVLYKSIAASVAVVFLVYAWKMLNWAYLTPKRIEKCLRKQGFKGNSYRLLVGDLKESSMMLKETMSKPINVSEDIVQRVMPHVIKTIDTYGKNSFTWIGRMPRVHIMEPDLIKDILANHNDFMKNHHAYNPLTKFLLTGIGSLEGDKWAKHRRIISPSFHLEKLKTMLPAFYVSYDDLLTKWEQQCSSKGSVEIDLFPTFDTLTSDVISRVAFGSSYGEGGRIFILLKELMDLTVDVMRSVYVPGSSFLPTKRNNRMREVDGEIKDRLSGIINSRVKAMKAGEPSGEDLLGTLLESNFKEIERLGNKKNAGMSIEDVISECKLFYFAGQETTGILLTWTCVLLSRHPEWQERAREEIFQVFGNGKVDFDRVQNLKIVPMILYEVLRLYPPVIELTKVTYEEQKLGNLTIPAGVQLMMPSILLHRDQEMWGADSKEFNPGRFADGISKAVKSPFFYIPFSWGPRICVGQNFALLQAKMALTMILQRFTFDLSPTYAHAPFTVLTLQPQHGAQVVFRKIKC
T6 sequence (A0A4Y5UJ61 entry or part of it H131F/H132D): as the sequence (A0A4Y5UJ61 entry or part of it) above, with H131F, H132D counted along it
T7 sequence (A0A4Y5UJ61 entry or part of it K270T): as the sequence (A0A4Y5UJ61 entry or part of it) above, with K270T counted along it
T4 sequence (A0A7G8Z808 entry or part of it H132D): as the sequence (A0A7G8Z808 entry or part of it) above, with H132D counted along it

Molecule: C[C@@H]1[C@H]2[C@H](O[C@@H]3O[C@H](CO)[C@@H](O)[C@H](O)[C@H]3O)OC=C(C(=O)O)[C@H]2C[C@@H]1O [loganic acid]
LC-MS of secologanic acid formed, reconstituted with CPR1 [1]: CYP72A564 consistently showed higher SLS and SLAS activity than CYP72A565
LC-MS of secologanic acid formed, reconstituted with CPR1 [2]: CYP72A564 consistently showed higher SLS and SLAS activity than CYP72A565

Kd [3]: 0.0547 ± 0.003 mM
Kd [4]: 1.19 ± 0.048 mM
Kd [5]: 0.283 ± 0.013 mM
Kd [6]: 0.345 ± 0.041 mM
Kd [7]: 1.2 ± 0.084 mM
Kd [10]: 2.3 ± 1 mM
Molecule: COC(=O)C1=CO[C@@H](O[C@@H]2O[C@H](CO)[C@@H](O)[C@H](O)[C@H]2O)[C@@H]2[C@@H](C)[C@@H](O)C[C@H]12 [loganin]
LC-MS of secologanin formed, reconstituted with CPR1 [8]: CYP72A564 consistently showed higher SLS and SLAS activity than CYP72A565
LC-MS of secologanin formed, reconstituted with CPR1 [9]: CYP72A564 consistently showed higher SLS and SLAS activity than CYP72A565

B1: CYP72A565 (Camptotheca acuminata; H131F) (protein)
chain: MEIQMDVLYKSIAASVAVVFLVYAWKMLNWAYLTPKRIEKCLRKQGFKGNSYRLLVGDLKESSMMLKETMSKPINVSEDIVQRVMPHVIKTIDTYGKNSFTWIGRMPRVHIMEPDLIKDILANHNDFMKNFHAYNPLTKFLLTGIGSLEGDKWAKHRRIISPSFHLEKLKTMLPAFYVSYDDLLTKWEQQCSSKGSVEIDLFPTFDTLTSDVISRVAFGSSYGEGGRIFILLKELMDLTVDVMRSVYVPGSSFLPTKRNNRMREVDGEIKDRLSGIINSRVKAMKAGEPSGEDLLGTLLESNFKEIERLGNKKNAGMSIEDVISECKLFYFAGQETTGILLTWTCVLLSRHPEWQERAREEIFQVFGNGKVDFDRVQNLKIVPMILYEVLRLYPPVIELTKVTYEEQKLGNLTIPAGVQLMMPSILLHRDQEMWGADSKEFNPGRFADGISKAVKSPFFYIPFSWGPRICVGQNFALLQAKMALTMILQRFTFDLSPTYAHAPFTVLTLQPQHGAQVVFRKIKC
notes: full-length ORF, C-terminal His6, in pCWori, expressed in E. coli, purified; kinetics with Camptotheca CPR1 and DLPC
Km [11]: 290 ± 80 µM
kcat [11]: 0.128 ± 0.01 s⁻¹
kcat/Km [11]: 445 ± 130 M⁻¹ s⁻¹

B2: CYP72A565 (Camptotheca acuminata; H131F/H132D) (protein)
chain: B1 chain with H132D
notes: as for B1
Km [11]: 1710 ± 100 µM
kcat [11]: 0.53 ± 0.0233 s⁻¹
kcat/Km [11]: 280 ± 18.3 M⁻¹ s⁻¹

B3: CYP72A564 (Camptotheca acuminata; H131F) (protein)
chain: MEIQMDVLYKSIAASVAVVFLVYAWKMLNWAYLTPKRIEKCLRKQGFKGNSYRLLVGDLKESSMMLKEAMSKPIPVSQDIVQRLMPHVVKTIQTYGKNSFTWIGRMPRVHIMEPELIKDILANHNNFQKNFHAYSPLTKFLLTGIGSLEGEKWAKHRRIISPSFHLEKLKTMLPAFYVSYDELLGKWERESSTKGSVEVDLFPTFDTLTSDVISRVAFGSSYGEGGRIFILLKELMDLTVDVMRSVYVPGWSLLPTKRNQRMREVDREIRERLSGIINSRVKAMKAGEPSGDDLLGTLLESNFREIERLGNKKNAGMSIEDVISECKLFYFAGQETTGILLTWTCVLLSRHPEWQERAREEIFQVFGNGKLDFDRVQGLKIVPMILYEVLRLYPPVIELTKVTYEEQKLGNLTIPAGVQLMMPSILLHRDKEMWGDDATEFNPGRFAEGVAKAVKSPFFYIPFSWGPRICVGQNFALLQAKMALAMILQRFSFDLSPTYAHAPFTVLTLQPQHGAQVIFRRLKC
notes: as for B1
Km [11]: 50 ± 10 µM
kcat [11]: 0.132 ± 0.00333 s⁻¹
kcat/Km [11]: 2480 ± 300 M⁻¹ s⁻¹

B4: CYP72A564 (Camptotheca acuminata; R270T) (protein)
chain: B3 chain with F131H, R270T
notes: as for B1
Km [12]: 3540 ± 510 µM
kcat [12]: 0.333 ± 0.0267 s⁻¹
kcat/Km [12]: 95 ± 15 M⁻¹ s⁻¹

B5: CYP72A564 (Camptotheca acuminata; H132D) (protein)
chain: B3 chain with F131H, H132D
notes: as for B1
Km [11]: 1440 ± 60 µM
kcat [11]: 0.228 ± 0.005 s⁻¹
kcat/Km [11]: 158 ± 8.33 M⁻¹ s⁻¹
